In the supplement of paper PMC9170038:

Test system: MS2 coat protein
Test: apparent KD of MS2 coat protein; designed switch direction (-1 OFF switch, 1 ON switch): 1; higher = weaker reporter binding
Procedure, shortened: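 Normalised cluster fluorescence was curve-fitted, and each design's median over clusters is its apparent KD. Before this, SNAP-549-labelled MS2 coat protein was titrated from 0.7 or 1.5 nM, doubling to 3 µM, over RNA switches transcribed on Illumina chips by stalled E. coli RNA polymerase. Titrations had no input, 200 uM small-molecule ligand, or an oligonucleotide input, and steps lasted 0.8–1.5 h (lowest) to 10–20 min (highest).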

[1] = Eterna round: R95, input ligand: FMN 200 uM
[2] = Eterna round: R95, input ligand: microRNA oligo, concentration not stated
[3] = Eterna round: R95, input ligand: none
[4] = input ligand: microRNA oligo, concentration not stated

Row | Sequence | apparent KD of MS2 coat protein [1] | apparent KD of MS2 coat protein [2] | apparent KD of MS2 coat protein [3] | apparent KD of MS2 coat protein (input ligand: FMN 200 uM) | apparent KD of MS2 coat protein [4] | apparent KD of MS2 coat protein (input ligand: none)
1 | UGUCCAGCCUGAGCUGGACAAAAGCAUGUACAUGAGGAUCACCCAUGUUCAUGUACAAGCUUUUUGCUCGUCUUACA [salish99_208a_r3_080] (puzzle: Sensor for hsa-mir-208a) | 347 nM | 15.2 nM | 529 nM |  |  | 
2 | UGGCUCAGAGCAGGAUAUAUGUAAUAACAUGAGGAUCACCCAUGUGUCGAGCUUCGGCUCGACACAUAGAAGGGCUCUGAGCCU [SSNG2/2-B3] (Eterna round: R96, puzzle: Same State NG 2) |  |  |  | 12 nM | 28.8 nM | 40.3 nM
3 | AUAUGAGGAGCAGGAUAUGCGGAGAAGAAAGAAGCAGAAGGGCUCAUGGGACGACAUGAGGAUCACCCAUGUGCUCCGCGAUGA [AK SSNG1-V2-4] (Eterna round: R96, puzzle: Same State NG 1) |  |  |  | 69.9 nM | 29.5 nM | 328 nM
4 | AUUAUUUAUGCAGGAUAUGAUUAACAUGAGGAUCACCCAUGUGGUGUUGUGAGUAAGGAGAGUGAUCAGAAGGGCAUUUUUAUU [JMF's solution 52] (Eterna round: R96, puzzle: Same State NG 2) |  |  |  | 627 nM | 493 nM | 568 nM
5 | GGAAGGAGGUCAGGAUAUGGAUGGAAGGUACAUGAGGAUCACCCAUGUUACGGAGGAAGGAAACGUUAGAAGGGAUAAGGAAGG [AK SSNG2-V2-2.1] (Eterna round: R96, puzzle: Same State NG 2) |  |  |  | 34.7 nM | 24.9 nM | 31.8 nM
6 | CUGAGCAAUCUAGGAUAUCACGUCGUUUAGACGUGAGAAGGAGAUCAUAACAUGAGGAUCACCCAUGUAUUACAUGAAGCUCAG [SSNG1/7-A3] (Eterna round: R96, puzzle: Same State NG 1) |  |  |  | 13.1 nM | 15.7 nM | 18.8 nM
7 | UUUAUAUUCAGAGGAUAUUAAUGUUGUAUAAUAUAAGAAGGCUGUUUGUUUUGUAAAGUUAUUAUACAUGAGGAUCACCCAUGU [JR_SSNG1_Sub082] (Eterna round: R96, puzzle: Same State NG 1) |  |  |  |  | 15.5 nM | 
8 | GAUCGUUUGAUAGGAUAUCGCUAUACAUGAGGAUCACCCAUGUUUACCACGCUGGUUUUUCAUACCGAGAAGGAUUCUGAUGAC [salish99_SSNG02_r04_007] (Eterna round: R96, puzzle: Same State NG 2) |  |  |  | 21.5 nM | 15.5 nM | 26.6 nM
9 | ACGUGGAUAUCACAGGAUAUACUCAUAACUACAUGAGGAUCACCCAUGUAGCGGUAUUCCGAUGCGUAGAAGGGUGAUGGACCAC [Same State 2 - Mod of Artece v.2] (puzzle: Same State 2) | 13.9 nM | 14.9 nM | 17.4 nM |  |  | 
10 | GUAGCAUACCGAGGAUAUUCAUAUUAUAACAUGAGGAUCACCCAUGUAGGUCGAUUACGACCUUGGGAGAAGGCGGAAUGCUAC [Xeonanis - 20 Mod35] (Eterna round: R96, puzzle: Same State NG 2) |  |  |  | 34.7 nM | 307 nM | 210 nM
11 | GUUACAUGAGGAUCACCCAUGUAUGUGUGGGAGUAAGUGUCUUAGGAUAUCUAUUAUUUGAAUUAAGAGAAGGAAGAUUGUUGU [JMF's solution 21] (Eterna round: R96, puzzle: Same State NG 3) |  |  |  | 128 nM | 69.8 nM | 103 nM
12 | UCCGCUAUCUAGAAGGAUAUGCGUAAAUAAACAUGAGGAUCACCCAUGUACCGGCGAAAGCCGGUGCAGAAGGUUUAGCUAGUGA [Xeisgexe] (puzzle: Same State 2) | 38.2 nM | 574 nM | 390 nM |  |  | 
